In patent US12564623B2, “Methods and compositions for treating cancer” (The University of Chicago, priority 2017, dated 2026):
Ends that are not written are not given here.

Legend:
MDA-MB-231 cells [1] = assay: ELANE inactivation by PMSF or A1AT and killing assay; format: cell-based, human; conditions: irreversible non-competitive ELANE inhibitors
Procedure: (FIG. 5A) Purified native ELANE or PMN media was treated with PMSF (100 nM) or alpha-1-anti-trypsin (A1AT; 42 nM) for 30 mins and loss of ELANE catalytic activity was confirmed by a chromogenic substrate assay. Killing assays were performed by treating MDA-MB-231 cells for 24 hrs treatment and assessed by Calcein AM staining. (FIG. 5B) ELANE activity in PMN media was measured by a chromogenic substrate activity assay, and PMN killing was measured by Calcein AM staining on MDA-MB-231 cells exposed to PMN media for 4h.

ELANE [2] = conditions: specific ELANE inhibitors; cited from earlier work
ELANE [3] = molecular target: T1, ELANE (Homo sapiens, UniProt P08246); assay: Anti-ELANE magnetic bead pull-down from neutrophil conditioned media, western blotting; format: binding; conditions: anti-ELANE antibody beads
T1 construct: incubated the neutrophil conditioned media with magnetic beads coupled to an anti-ELANE antibody; endogenous in cells; host or cells: human peripheral blood neutrophils from healthy donors (conditioned media)
T1 sequence (P08246 30-267): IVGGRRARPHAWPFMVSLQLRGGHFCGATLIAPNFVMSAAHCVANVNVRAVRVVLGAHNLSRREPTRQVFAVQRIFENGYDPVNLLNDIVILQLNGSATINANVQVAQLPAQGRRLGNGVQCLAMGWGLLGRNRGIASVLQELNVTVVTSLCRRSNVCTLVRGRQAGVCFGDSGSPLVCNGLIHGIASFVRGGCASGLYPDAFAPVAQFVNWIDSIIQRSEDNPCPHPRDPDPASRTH
Text: Identification of ECP, ELANE, ANXA6, DEFA1, and CASP3 as candidate cancer cell killing proteins in the neutrophil conditioned media. Neutrophil conditioned media was obtained from 2 different donors (Donor 1 and Donor 2). […] To determine the identity of the proteins depleted by the 0.2 μm sterile filter, the inventors performed quantitative proteomics analysis on the conditioned media from each donor pre- and post-filter. Proteomics analysis identified 2000 proteins, 4 of which (ECP, ELANE, ANXA6, and DEFA1) were depleted in samples from both donors (G-test, p<0.05). The inventors explored the possibility that these proteins might interact with or complement one another. This hypothesis was tested using two approaches. First, the inventors incubated the neutrophil conditioned media with magnetic beads coupled to an anti-ELANE antibody and analyzed the supernatant (sup), wash, and eluent (elute) by western blotting.

ELANE [4] = molecular target: T1, ELANE; assay: ELANE catalytic activity with increasing ECP, chromogenic substrate activity assay; format: biochemical; conditions: ECP as type 2 allosteric activator
Procedure: (§1) FIG. 7A-D. ECP is a type II allosteric activator of ELANE catalytic activity. (a) 10 nM ELANE was incubated with increasing ECP concentrations at various substrate concentrations. Catalytic activity was measured by a chromogenic substrate activity assay. (b) Km (app) and Vmax (app) values were obtained by fitting curves to Michaelis-Menten equations (lines). (c) Km (app) versus ECP concentration. (d) Vmax (app) versus ECP concentration. ELANE was immunoprecipitated from human PMN media and samples were probed with anti-ELANE and anti-ECP antibodies. Orig=PMN media, Sup=flow-though, Wash=bead wash, Elute=bound to anti-ELANE antibody.
as §1, with “ECP” for “FIG. 7A-D. ECP”, “(FIG. 7A)” for “(a)”, “(FIG. 7B)” for “(b)”, “(FIG. 7C)” for “(c)”, “(FIG. 7D)” for “(d)”

MDA-MB-231 cells [5] = assay: Cancer cell killing, Calcein AM staining; format: cell-based, human; conditions: increasing doses, 5h
Procedure: Approach to identify the factor(s) mediating selective killing. A quantitative cancer cell killing assay was developed to track the bioactive factor(s). MDA-MB-231 cells were treated with various doses of PMN media and cell viability was assessed by Calcein AM live cells fluorescence staining. […] (FIG. 3B) PMN media was passed through a 0.22 μm filter, and protein concentration and killing activity on MDA-MB-231 cancer cells was measured in both pre- and post-filter solutions. […] ELANE and ECP levels in PMN media pre- and post-filtration were quantified by mass spectrometry (spectral counts).
To determine if ELANE and/or ECP were responsible, the inventors (1) immuno-depleted ELANE or ECP from PMN media; (2) treated cancer or normal cells with purified native ELANE or ECP from commercial sources. (FIG. 6A) ELANE or ECP were depleted from PMN media by immunoprecipitation; depletion was confirmed by western blotting. PMN media pre-depletion=Orig. and post-depletion=FT. Non-specific IgG was used as a control. (FIG. 6B) MDA-MB-231 cells or human monocyte-derived macrophages (HMDMs) were treated with purified native ELANE or ECP at various doses for 24h, and killing was assessed by Calcein AM staining. (FIG. 6C) MDA-MB-231 cells and HMDMs were treated with levels of ELANE (0.25 μg/mL) or ECP (0.05 μg/mL) that were present in the PMN media, alone or in combination for 24 hrs, and killing was examined by Calcein AM staining.
High doses of ECP or ELANE can kill cancer cells. The inventors sought to determine whether adding purified human ECP (Lee Biosolutions), human ELANE (Abcam), human DEFA1 (Abcam), human ANXA6 (R&D Systems) or human CASP3 (Abcam) individually could kill cancer cells without killing non-cancer cells. Increasing doses of each protein were added to MDA-MB-231 cells for 5h or human monocyte-derived macrophages (HMDMs) for 24 h and cell viability was determined by Calcein-AM.
ELANE and ECP synergize to selectively kill cancer cells. MDA-MB-231 and human monocyte-derived macrophages (HMDMs) were treated with levels of ELANE (0.25 μg/mL) or ECP (0.05 μg/mL) that were present in the PMN media, alone or in combination for 24 hrs. killing was examined by Calcein AM staining.
Combining chemotherapeutics and neutrophil conditioned media enhances the killing of human triple negative breast cancer cells. MDA-MB-231 cells were treated with neutrophil conditioned media (Neu-CM; 4 μg/mL), doxorubicin (DOX; 0.3 μM), or paclitaxel (PTX; 3 nM) for 4h, individually or in combination, and cell viability was assessed by Calcein-AM.
Other serine proteases cleave the C-terminal domain of CD95, and the ability to cleave the C-terminal domain is associated with cancer cell killing. (FIG. 12A) Full length recombinanat CD95 protein was incubated with various serine proteases (human ELANE (80 nM), PR3 (80 nM), CSTG (80 nM), PPE (80 nM), mouse ELANE (80 nM), rat ELANE (500 nM), GZMB (80 nM), or Trypsin (250 nM)), or other types of proteases (CTSC (80 nM); or MMP7 (80 nM), MMP9 (80 nM), CTSD (80 nM) not shown) at 37° C. for 2 hours. Degradation was assessed by SDS-PAGE followed by coomassie blue staining. (FIG. 12B) MDA-MB-231 cancer cells were incubated with various proteases for 24 hrs. Cell viability was assessed by Calcein AM staining.
(FIG. 13A) MDA-MB-231 cancer cells were treated with various doses of purified native ELANE or purified native porcine pancreatic elastase (PPE) for 6 h, and killing was assessed by Calcein AM staining. (FIG. 13B). Purified native ELANE or purified native PPE was incubated with different concentrations of alpha-1-anti-trypsin (A1AT) for 15 mins. Catalytic activity was measured using a chromogenic substrate assay. Cancer cell killing capability was determined by treating MDA-MB-231 cancer cells with ELANE or PPE in the presence or absence of A1AT for 6h, followed by Calcein AM staining. (FIG. 13C) Catalytic activity was measured using a chromogenic substrate assay. […]

[6] = system: human monocyte-derived macrophages (HMDMs); format: cell-based
Procedure: Human peripheral blood neutrophils were isolated from healthy donors. Cells were plated in serum-free DMEM and the neutrophil conditioned media (Neu CM) was collected for 24h. […] High doses of ECP or ELANE can kill cancer cells. The inventors sought to determine whether adding purified human ECP (Lee Biosolutions), human ELANE (Abcam), human DEFA1 (Abcam), human ANXA6 (R&D Systems) or human CASP3 (Abcam) individually could kill cancer cells without killing non-cancer cells. Increasing doses of each protein were added to MDA-MB-231 cells for 5h or human monocyte-derived macrophages (HMDMs) for 24 h and cell viability was determined by Calcein-AM. […] ELANE and ECP synergize to selectively kill cancer cells. MDA-MB-231 and human monocyte-derived macrophages (HMDMs) were treated with levels of ELANE (0.25 μg/mL) or ECP (0.05 μg/mL) that were present in the PMN media, alone or in combination for 24 hrs. killing was examined by Calcein AM staining.

[7] = system: E0771, B16F10, or LLC1 cancer cells; assay: Tumor growth after intratumoral delivery, syngeneic models; format: in vivo, C57BL/6 mice; conditions: 11.6 μg intratumorally once/day for 5 days
Procedure: ELANE activity is required for its anti-tumor function in vivo. (FIG. 14A) Catalytic activity of ELANE or ELANE that had been inactivated by treatment with 100 nM PMSF (PMSF-ELANE) was determined by a chromogenic substrate. (FIG. 14B) E0771, B16F10, or LLC1 cancer cells were injected into C57BL/6 mice. Once tumors reached ˜100 mm^3, human serum albumin (HSA, 11.6 μg), ELANE (11.6 μg), or PMSF-ELANE (11.6 μg) were delivered intratumorally once/day for 5 days. Tumor volume was assessed by calipers.

Molecule: O=S(=O)(F)Cc1ccccc1 [PMSF]
- effect on cancer cell apoptosis of treating ELANE or neutrophil conditioned media with inhibitor (MDA-MB-231 cells [1]): protects cancer cells from apoptosis

Molecule: elafin (AQEPVKGPVSTKPGSCPIILIRCAMLNPPNRCLKDTDCPGIKKCCEGSCGMACFVPQ; ends and bridges not checked; cysteine pairing not given here; UniProt P19957 61-117, looked up)
- growth of transplanted cancer cells (ELANE [2]): suppress growth of cancer cells transplanted into severe combined immunodeficiency mice

Molecule: CC(C)(C)C(=O)Oc1ccc(S(=O)(=O)Nc2ccccc2C(=O)NCC(=O)O)cc1 [sivelestat]
- growth of transplanted cancer cells (ELANE [2]): suppress growth of cancer cells transplanted into severe combined immunodeficiency mice

Molecule: alpha-1-antitrypsin
- effect on cancer cell apoptosis of treating ELANE or neutrophil conditioned media with inhibitor (MDA-MB-231 cells [1]): protects cancer cells from apoptosis

B1: eosinophil cationic protein (protein, listed as Homo sapiens)
chain: MVPKLFTSQICLLLLLGLMGVEGSLHARPPQFTRAQWFAIQHISLNPPRCTIAMRAINNYRWRCKNQNTFLRTTFANVVNVCGNQSIRCPHNRTLNNCHRSRFRVPLLHCDLINPGAQNISNCTYADRPGRRFYVVACDNRDPRDSPRYPVVPVHLDTTI
- binding to ELANE (ELANE [3]): ELANE-binding proteins
- effect on KM of ELANE (ELANE [4]): without altering KM
- increase of kcat of ELANE for its substrate (ELANE [4]): 12 fold
- cancer cell killing activity of purified protein (MDA-MB-231 cells [5]): highest cancer cell killing activity
- toxicity to human monocyte-derived macrophages [6]: showed toxicity

B2: PMSF-ELANE: ELANE that had been inactivated by treatment with PMSF (protein, UniProt P08246 30-267, looked up)
Neutrophil elastase: T1 sequence (P08246 30-267)
modifications: PMSF-inactivated
- tumor growth [7]: no effect on tumor growth
